Here are results for 19 sequences from the DeepSol protein solubility set.

The series is described as follows: soluble on expression in E. coli; label from the status in PepcDB or PDB records.
Regarding “GMRSNRVTQHPPLQLSLPVHLPDDETFTSYYPAAGNDELIGALKSAASGDGVQAIYLWGPVKSGRTHLIHAACARANELERRSFYIPLGIHASISTALLEGLEQFDLICIDDVDAVAGHPLWEEAIFDLYNRVAEQKRGSLIVSASASPMEAGFVLPDLVSRMHWGLTYQLQPMMDDEKLAALQRRAAMRGLQLPEDVGRFLLNRMARDLRTLFDVLDRLDKASMVHQRKLTIPFVKEMLRL”, the “soluble on expression in E. coli” value is given as “soluble”. The value for “GMSNALATLASPADDIAFYEERLRAAMLTGDLKGLETLLADDLAFVDHTGCVKTKQTHLEPYRAGLLKLSRLDLSDAVVRAAGEDGRVVVVRAVTAGVYDGEAFTETLRFTRIWRRTQGPAGWKLVAGHCSVIL” was “soluble”.

For “GMSSKEEILSILEAFASTERMGSFFLDNATADFLFIRPSGNPLDAKGFENMWSSGDLVLESAEITKVHKFELLGSNAAICVFTLGSKFTYKGTQNDDLPTVTSIFKKIDEKWKVAWMQRSSGQSDMTLWNE”, the “soluble on expression in E. coli” value is listed as “soluble”.

On to “GMSTQENVQIVKDFFAAMGRGDKKGLLAVSAEDIEWIIPGEWPLAGTHRGHAALAALLQKASEMVEISYPEPPEFVAQGERVLVVGFATGRVKSTNRTFEDDWVFAITVRKSKVTSIREYIDTLALARATNFNAT”, for which the “soluble on expression in E. coli” value is given as “soluble”. Regarding “GMSTSPADTARYNRFVADLFGMMAYGELSAFERFSADARYSPTLHDRAVLGRIAVVEFRHYELVSARLEAMGIDAEDAMLPFQAAVDYFHSRTRPADWYESLMKAYVIDTVSADFYRAISRYVDAGTRDVIEQIQASDETTEVLRERLRSALADDPRLASRLALWGRRLLGEALTQAQRVSYEHAFLGSLIGGEDSAAAKELVSGLIAGLAEKHSKRMTQLGLTG”, the “soluble on expression in E. coli” value is recorded as “soluble”. On to “GMTGFVINTRRAPFDDWRLREALLLAFNFEFINDTVTGGVMPRITSYFSGTDLAYRPGTASGREAELLAPFAADLPPGTLEGYALPQGDGTARNRTNLRRAAQFLEQAGFRIEQGQLLGPDGAPLALRFLLRQGDSDMQTVLEIYTRALERLGIAAQIEKVDNAQYTARVAELDFDLTPFRRDLSLSPGNEQRLYWGSHSAGQPGTRNLMGAASPAIDAMIDRMLAATTEDELTAATRALDRVLTAGRYVIPIWRFD”, for which the “soluble on expression in E. coli” value is given as “not soluble”. To “GMTQHITRMRREIDEIPEAVQRLLDHGAQDVARVAAVLRLRDPSFVATVARGSSDHVCTYLSYAAELLLGLPVASLGPSVASVYDARLRLDRALCLAVSQSGKSPDIVAMTRNAGRDGALCVALTNDAASPLAGVSAHTIDIHAGPELSVAATKTFVTSAVAGLMLLADWAEDDGLRAALGNLPETLAAASRIDWPEMRVAIGARPSLFTLGRGTSLAVSNEAALKFKETCQLHAESYSSAEVLHGPVSIVEEGFPVLGFAAGDAAEAPLAEIADQIAAKGATVFATTGRVTRARVLEHVRSGHALTDPLSLIVSFYSMVEAFASERGIDPDAPRHLNKVTETV” belongs “soluble”.

As to “GMTRPAHPISRYPVPELAALPDDIRQRILEVQDKAGFVPNVFLTLAHRPDEFRAFFAYHDALMLKDGGLTKGEREMIVVATSAANQCLYCVVAHGAILRIYEKKPLVADQVAVNYLKADIPPRQRAMLDFALKVCKASHEVNEADFEALREHGFTDEDAWDIAAITAFFGLSNRMANTIGMRPNDEFFLMGRVPKSK”, the “soluble on expression in E. coli” value is given as “soluble”.

As for “GMTRSEAQGRLTGLAPVSVIDIGSNSVRLVVYEGLSRAPAVLFNEKVLCGLGKGLALTGRMHEEGVTRALMALRRFHVLSEQAQAQKLYVLATAAAREAENGPDFIREAEAILGCEIEVLSGEKEALYSAYGVISGFYQPDGIAGDLGGGSLELIDIKDKSCGEGITLPLGGLRLSEQSDGSLEKAATIARKHVKSFAKLLAAGEGRTFYAVGGTWRNIAKLHMEISGYPLHMMQGYELPLEEMLNFLEEVIVSRDSKDPAWQAVSKNRRSLLPFGAIAMREVLRAMKPAKIAFSAQGVREGYLYSLLTEAERESDPLLVAADELAILRARSPEHARELADWSGRTFPVFGIDETEEESRYRQAACLLADISWRAHPDYRGLQALNIIAHSSFVAITHPGRAYIALANYYRFEGLNDNGTTEPLAAMAGERLQELGKLLGGLLRVVYLFSASMPGVVDHLKFRKSDNPDIDLEFVVPHDYCDFAGERLDGRLQQLAKLTGKRLAFVFE”, the “soluble on expression in E. coli” value is given as “soluble”.

For “GMTYKDYTGLDRTELLSKVRHMMSDKRFNHVLGVERAAIELAERYGYDKEKAGLAALLHDYAKELSDDEFLRLIDKYQPDPDLKKWGNNIWHGLVGIYKIQEDLAIKDQDILAAIAKHTVGSAQMSTLDKIVYVADYIEHNRDFPGVEEARELAKVDLNKAVAYETARTVAFLASKAQPIYPKTIETYNAYIPYLD”, the “soluble on expression in E. coli” value is “soluble”.

In the case of “GNIEAALFGLIALYAQTKVIDSIIYGGDAGSMATIVTGNPDGIAAKVIYELDRTATVLPAKGAYSRKDTSVLLCTVRKSQFVKLKRIVYEEDPDAFVMVTETSEVLGLGFRAFKDSL”, the “soluble on expression in E. coli” value was “not soluble”. Take “GPALVKQSHPKNPNDKHRSKKCKDPKPRVKKLKYHQYIPPDQKGEKNEPQMDSNYARLLQQQQLFLQLQILSQQKQHYNYQTILPAPFKPLNDKNSNSGNSALNNATPNTPRQNTSTPVRKPGPLPSSLDDLKVSELKTELKLRGLPVSGTKPDLIERLKPYQEVNSSGLAAGGIVAVSSSAIVTSNPEVTVALPVTTLHNTVTSSVSTLKAELPPTGTSNATRVENVHSPLPISPSPSEQSSLSTDDTNMADTFTEIMTMMSPSQFLSSSPLRMTNNEDSLSPTSSTLSNLELDAAEKDRKLQEKEKQIEELKRKLEQEQKLVEVLKMQLEVEKRGQQQRPLEAQPSAPGHSVKSDQKHGSLGSSIKDEASLPDCSSSRQPIPVASHAVGQPVSTGGQTLVAKKAVVIKQEVPVGQAEQQSVVSQFYVSSQGQPPPAVVAQPQALLTTQTAQLLLPVSIQGSSVTSVQLPVGSLKLQTSPQAGMQTQPQIATAAQIPTAALASGLAPTVPQTQDTFPQHVLSQPQQVRKVFTNSASSNTVLPYQRHPAPAVQQPFINKASNSVLQSRNAPLPSLQNGPNTPNKPSSPPPPQQFVVQHSLFGSPVAKTKDPPRYEEAIKQTRSTQAPLPEISNAHSQQMDDLFDILIKSGEISLPIKEEPSPISKMRPVTASITTMPVNTVVSRPPPQVQMAPPVSLEPMGSLSASLENQLEAFLDGTLPSANEIPPLQSSSEDREPFSLIEDLQNDLLSHSGMLDHSHSPMETSETQFAAGTPCLSLDLSDSNLDNMEWLDITMPNSSSGLTPLSTTAPSMFSADFLDPQDLPLPWD”: the “soluble on expression in E. coli” value is reported as “soluble”. “GPGSMAETRKEEWSEPEVPGGRSEVVAGIKRRREKLELYQSASHKMKALMMNSAGIRSGLGANNELPVNPIWMKFPTRCVKPIHSVEEMREKLHYFSHSDDVMVVRYHQENCTACNALDKTFEFLCHQSADRYPNLKFYEVSKDATPQLTRNLVRYPQVKGFSGGHWTDLEFKPPAEFREELYSGVEREVTRRKREGQPVTALEAEEMYYSSAGPAMAQVLEESVVKFYCKAQARLHNYWKQVSVRRAWFFRKFVEPKVDDQVRDEWRLKSVFGEKLSYGPEPQMEEF”: the “soluble on expression in E. coli” value is given as “not soluble”.

As to “GPGSMAHEHGNEFAGPGGGNGGNGGNVMLQCVKQHTDLSHIEDLGSQISAGAGCCGFSREAHGKRGQDLWLQLPLGTQVVDMDTNEVQYDMDEEGMQIVLLEGGQGGKGNAAFANKWHHSPIESTKGLPGNTMLAQIELKTIADCGLIGYPNAGKSSLLSAISASKPTIAPYAFTTLRPYVGVLHDLYGNVCRVADIPGLIEGAYENRGLGHQFLRHVERTKCLALVVDMCNTYVPDTGLRNSSEVLQPWDVVELLLQELEYYLPGMSQRVIMTFANKMDIEKDSTGTATQVKLSELKRRVSMPVFPISAALGIHLGPQHEQTGLAPALQFMCGEVFARQSQEREMRQFRFSHERAQLERAFRAKHNGVFLPQVHALGAHGAEASQDLDDEAADRGGSLVDQQLDFLGNSGLGVKFDAYENSAARGQLHRYRDLTMKGKYWNLTRQDGEVMKGEKWS”, the “soluble on expression in E. coli” value is given as “not soluble”.

Consider “GPGSMAIPPLRASDLSSPSPSIAPQRERTRSVGTRLRTSITRDDAERVLPASSSQVETLARDATTTCEQQLMQEEELCGPSYREVEGRRPSRALSPSGAGDTSGVEDGGRARGREYVEDSDDEDVYNSHVARRIRAFLDSIKAEDFTRNPSPVDVTGMAANGEGIDEEALRQQWLERATVDEARSIAAEAQRELLIVLHDAITLETDLAEMSEDAAVLERAVNHREETVEMLKMQLSIADEYNEELHGAKKEALRKLSDAKTEIALLSQRNATLSKQLHEKEKALQLSLARSASASARTSPPAAERRDEGTITTAELQSALIAATASTGLPNNGSLSTPSSPAQHGECELKGMLRKLQLVCDTLQSTVTAKADLDQQLRQWTMGVGESRADAAACGSASSDAGISQPHGERCAPTDAEQRLLRRRCEDVARCIDSLENDIRMLRAKVRAQQACTDAVEGGSAGRRRSAAEAEAATRPQPVETPGPASASATLPEGPGGSGGCAEPADSNLAFLQRQLDRAQADARRLESELRAEREKSQRQSAAEKKLLENVAYLTRKLRAREALDREARLQRRGEKGGTHGDGGDTADGRRTLLYPHRFSHGDSAGVRRGASTAAGDVCGEGAPTSALRRVNREADAVGMGAATAAARKGRANSQELRQRRESVFAALRDAQRASDERRSSHVVSDTRRSSDVQTSFSPILPTSSSRDAALKASGNAVKSGTRATTPTLTPSRG”, for which the “soluble on expression in E. coli” value is “not soluble”. The value for “GPGSMAKRDKRRTSLVQQNFDSLKRFYAISPFAAAERATLPPVYSGVYSRRAAMNSYHVVGSSRDQIVLEAMRTFTPSVCTKEVMDLYLEVAALVSLYFDTKEQLLALPDV” was “not soluble”; that for “GPGSMASKKQADGSKDIGDAAWREKLTTQEYRVLRQKATDPPFGAYNTHFETGTYHCAGCGTLLYKSSMKFPCECGWPAFFDCVPLAVREEPDSDGVRTEILCNACGGHLGHVFRGEGFNNPPPNERHCVNGTAIRFQSEK” was “soluble”; that for “GPGSMAVPDDNAEEVELLLSISPEVVCRDPTHSSTLVFLLPFRFVLHVTLPPRGYPDVSRPSLFVAAGPNAHLVNQFSSQLNKALREEVPLGGPMLLHIFTLAQDIATELQRTREAEAQEAKARREAMESEAQLALAEREASSVEVWASDAITDRKSKFVAHMARVDSEAAVREVVMHLRSQKHIAEAAHPTIYAYRFTDSSGVVHHDSDDDGETGAASRIMFLLEQMKVDGYVVVVTRWFGGVLLGPDRFKHIMEVARSILLTIPQREKERGVRDWQDRQ” was “soluble”.

For the sequence “GPGSMDAIHILKENALRLVSAGQPISALHLVEVLCELQPDSDENRSLKIRCLYELREFDSVLKLAKQVTFACDQNSEVFLLAVKAAFELGDLKTCVQYAMTLINADSSKVVAMCFVAKAAELSGDPAKAVRFYKMALEADPFCGEAFSALTERHLLDRWEMLKLIDSLCIPAEVEVYRSTLKARIGSDYLTPGISGVPRTLVLLAGAKKEYESNNLRQALSLTTEILEVEPYHRQTLCLHLCILVDSKATPLLFEKAHFLSKNKCYTELAVYAIGCFYYSLSNYERAGRYFSRASELDCYFAEAWVAYGHCYAKLEEGEQALNVYRRTMNFFPGLNACCTYVGMQYSRVNQRSVARCFFEESLRKNSIDPLVLNELGVLALAEDNPKQALELFQKAYDSLPNRENPSEHSDCILFNLATMYRKLGRYEAAIDYYNQYVRSRPNASHGHCALGFTYHLSGNIKAAISCYHTAESIKPDSFCRDLLRRALELDFGACGRLSWDSERPHLSFSPGEVSFSTVSRRFRSESTAADSVAASPPPRVGRSLDFQHQ”, the “soluble on expression in E. coli” value is given as “not soluble”.
